Results: patent US20210292393A1 (published 2021)

Key:
[1] = target: SARS-CoV-2 full length spike protein, D614G mutant (SARS-CoV-2, UniProt P0DTC2 14-1273)
[2] = target: SARS-CoV-2 full length spike protein, V367F mutant (SARS-CoV-2, UniProt P0DTC2 14-1273)
[3] = target: SARS-CoV-2 full length spike protein, D614G mutant (SARS-CoV-2, UniProt P0DTC2 14-1273); remark: listed apart in the source
[4] = target: SARS-CoV-2 full length spike protein, V367F mutant (SARS-CoV-2, UniProt P0DTC2 14-1273); remark: listed apart in the source

| Binder | median fold over isotype [1] | median fold over isotype [2] | median fluorescence intensity, fold over isotype control [3] | median fluorescence intensity, fold over isotype control [4] |
| --- | --- | --- | --- | --- |
| antibody 528 (antibody, V domains shown) VH: QVQLVQSGAEVKKPGSSVKVSCKASGGTFNSNSISWVRQAPGQGLEWMGRIIPILDITMYARKFQGRVTISADKSTGTAYMDLSSLRSEDTAVYYCATDRDDSSGDYYYGMDVWGQGTTVTVSS VL: DIQMTQSPSSLSASVGDRVTITCRASLSISNYLNWYQQKPGKAPNLLIYAASTLQSGVPSRFSGSGSGTDFTLTISSLQPEDFATYYCQQTYITRWTFGQGTKVEIK | 3.71 fold over isotype | 31.2 fold over isotype |  |  |
| antibody 286 (antibody, V domains shown) VH: QVHLVESGGGVVQPGKSLRLSCAGSGFIFSDFGMHWVRQSPGKGLEWVAVVSYDGSVTKYSDSFEGRFTISRDNSKNTLYLQMDSLRPDDTAIYYCAKGQGANLLHYWGKGILVTVSS VL: DVVLTQSPLSLPVTLGQPASISCRSSESLVYTDGDTYLHWFHQRPGQSPRRLIYKVSNRDSGVPDRFSGSGSGTDFTLKISRVEAEDVGVYYCMQGTHWPFTFGPGTKVDIK |  |  | 6.17 fold over isotype | 28.2 fold over isotype |
| antibody 302 (antibody, V domains shown) VH: QVQLVQSGAEVRKPGASVKVSCKVSGYTLSELSMHWVRQAPGKGLEWMGGFDPEDGERMYAQKFQGRVTMTEDTSTDTAYMELSSLRSEDTAIYYCTTDLSYLWSGKLEPDYWYFALWGRGTLVTVSS VL: not shown |  |  | 45.4 fold over isotype | 26.5 fold over isotype |
| antibody 515 (antibody, V domains shown) VH: EVQLVESGGGLVKPGGSLRLSCAASGFTFSSYSMNWVRQAPGKGLEWVSSISSSSSYIYYADSVKGRFTISRDNAKNSLYLQMNSLRAEDTAVYYCASIAAAGTLYYYYGMDVWGQGTTVTVSS VL: not shown | 21.6 fold over isotype | 9.43 fold over isotype |  |  |
| antibody 520 (antibody, V domains shown) VH: QVQLVESGGGVVQPGRSLRLSCAASGFTFSSYAMHWGRQAPGKGLEWVAVISYDGSNKYYADSVKGRFTISRDNSKNTLYLQMNSLRAEDTAVYYCARDGGSGWLLVGNWFDPWGQGTLVTVSS VL: QSALTQPASVSGSPGQSITISCTGTSSDVGGYNYVSWYQQHPGKAPKLMIYDVSNRPSGVSNRFSGSKSGNTASLTISGLQAEDEADYYCSSYTSSITLYVFGTGTKVTVL | 7.6 fold over isotype | 31.2 fold over isotype |  |  |
| antibody 305 (antibody, V domains shown) VH: QVQLVESGGGVVQPGRSLRLSCAASGFTFSSYAMHWVRQAPGKGLEWVAVISYDGSNKYYADSVKGRFTISRDNSKNTLYLQMNSLRAEDTAVYYCAREQTSYDYVWGTLGAYYYYGMDVWGQGTTVTVSS VL: SSELTQDPAVSVALGQTVRITCQGDSLRSYYASWYQQKPGQAPVLVIYGKNNRPSGIPDRFSGSSSGNTASLTITGAQAEDEADYYCNSRDSSGNHLVFGGGTKLTVL |  |  | 78.9 fold over isotype | 41 fold over isotype |
| antibody 308 (antibody, V domains shown) VH: QLQLQESGPGLVKPSETLSLTCSVSGGSISSSSYHWGWIRQPPGKGLEWIGSIYYSGSTYYNPSLKSRVTISVDTSKNQFSLKLRSVTAADTAVYYCAGLRVVITFGGVIPKGGAFDIWGQGTMVTVSS VL: QSALTQPASVSGSPGQSITISCTGTSSDVGGYNYVSWYQQHPGKAPKLMIYDVSNRPSGVSNRFSGSKSGNTASLTISGLQAEDEADYYCSSYTSSSTVVFGGGTKLTVL |  |  | 7.93 fold over isotype | 33.4 fold over isotype |
| antibody 530 (antibody, V domains shown) VH: EVQLVESGGGLVQPGGSLRLSCAASGFTFSSYWMSWVRQAPGKGLEWVANIKQDGSEKYYVDSVKGRFTISRDNAKNSLYLQMNSLRAEDTAVYYCAREPQLWSEYYFDYWGQGTLVTVSS VL: DIQMTQSPSSLSASVGDRVTITCRASQGISSWLAWYQQKPEKAPKSLIYAASSLQSGVPSRFSGSGSGTDFTLTISSLQPEDFATYYCQQYNSYPPTFGQGTRLEIK | 8.68 fold over isotype | 8.39 fold over isotype |  |  |
| antibody 310 (antibody, V domains shown) VH: EVQLVESGGGLVQPGGSLRLSCAASGFTFSSYWMSWVRQAPGKGLEWVANIKQDGSEKYYVDSVKGRFTISRDNAKNSLYLQMNSLRAEDTAVYYCARVGSSSWYFDYWGQGTLVTVSS VL: not shown |  |  | 5.35 fold over isotype | 28.1 fold over isotype |
| antibody 552 (antibody, V domains shown) VH: QVQLVQSGAEVKKPGSSVKVSCKASGGTFSSYGISWVRQAPGQGLEWMGRIIPILGIANYAQKFQGRVTITADKSTSTAYMELSSLRSEDTAVYYCARAVYAAGDDDYYYYYGMDVWGQGTTVTVSS VL: SYELTQPPSVSVSPGQTARITCSGDALPKQYAYWYQQKPGQAPVVVIYKDSDRPSGIPERFSGSSSGTTVTLTISGVQAEDEADYYCQSADSSGTYQVFGTGTKVSVL | 23.5 fold over isotype | 13.2 fold over isotype |  |  |
| antibody 525 (antibody, V domains shown) VH: QVQLVESGGGVVQPGRSLRLSCAASGFTFSSYAMHWVRQAPGKGLEWVTVISYNGRNKYYADSVKGRFTISRDNSKNTLYLQMNSLRAEDTAVYWCAREGLGAIVVGLDYWGQGTLVIVSS VL: not shown | 7.12 fold over isotype | 32.4 fold over isotype |  |  |
| antibody 532 (antibody, V domains shown) VH: EVQLVESGGGLVQPGGSLRLSCAASGIIVSSNYMSWVRQAPGKGLEWVSVIYSGGSTYYADSVKGRFTISRDNSKNTLYLQMNSLRAEDTAVYYCAREGLVGATLAFDYWGQGTLVTVSS VL: not shown | 74.9 fold over isotype | 45.1 fold over isotype |  |  |
| antibody 535 (antibody, V domains shown) VH: EVQLVESGGGLIQPGGSLRLSCAASGFTVSSNYMSWVRQAPGKGLEWVSVIYSGGSTYYADSVKGRFTISRDNSKNTLYLQMNSLRAEDTAVYYCARDLTEEGDFWSASSYRRYYYYGMDVWGQGTTVTVSS VL: not shown | 93.2 fold over isotype | 64.5 fold over isotype |  |  |
| antibody 287 (antibody, V domains shown) VH: QLQLQESGPGLVKPSETLSLTCTVSGGSISSSSYYWGWIRQPPGKGLEWIGSIFYSGSTYYNPSLKSRVTIFVDTSKNQFSLKLSSVTAADTAVYYCARFDYQVVDLTGFDYWGQGTLVTVSS VL: DIQMTQSPSSLSASVGDRVTITCRASQGIRNDLGWYQQKPGKAPKRLIYAASSLQSGVPSRFSGSGSGTEFTLTIRSLQPEDFATYYCLQYNSYPLTFGGGTKVEIK |  |  | 87.4 fold over isotype | 60.9 fold over isotype |
| antibody 529 (antibody, V domains shown) VH: QVQLVQSGAEVKKPGASVKVSCKASGYTFTSYGISWVRQAPGQGLEWMGWISAYNGNTNYAQKLQGRVTMTTDTSTSTAYMELRSLRSDDTAVYYCARMLIAAAGTSRDYYGMDVWGQGTTVTVSS VL: EIVLTQSPDFQSVTPKEKVTITCRASQSIGSSLHWYQQKPDQSPKLLIKYASQSFSGVPSRFSGSGSGTDFTLTINSLEAEDAATYYCHQSSSLPHTFGGGTKVEIK | 0.77 fold over isotype | 0.98 fold over isotype |  |  |
| antibody 298 (antibody, V domains shown) VH: EVQLVESGGGLVQPGGSLRLSCAASGFTVSSNYMSWVRQAPGKGLEWVSVIYSGGSTYYADSVKGRFTISRDNSKNTLYLQMNSLRAEDTAVYYCAREEGEWEKDYYGMDVWGQGTTVTVSS VL: not shown |  |  | 66.8 fold over isotype | 35.7 fold over isotype |
